{"source": "paper PMC6776250", "origin": "cited, not measured here", "target": "RNase Y (Bacillus subtilis) (UniProt O31774)", "sequence (O31774 whole entry)": "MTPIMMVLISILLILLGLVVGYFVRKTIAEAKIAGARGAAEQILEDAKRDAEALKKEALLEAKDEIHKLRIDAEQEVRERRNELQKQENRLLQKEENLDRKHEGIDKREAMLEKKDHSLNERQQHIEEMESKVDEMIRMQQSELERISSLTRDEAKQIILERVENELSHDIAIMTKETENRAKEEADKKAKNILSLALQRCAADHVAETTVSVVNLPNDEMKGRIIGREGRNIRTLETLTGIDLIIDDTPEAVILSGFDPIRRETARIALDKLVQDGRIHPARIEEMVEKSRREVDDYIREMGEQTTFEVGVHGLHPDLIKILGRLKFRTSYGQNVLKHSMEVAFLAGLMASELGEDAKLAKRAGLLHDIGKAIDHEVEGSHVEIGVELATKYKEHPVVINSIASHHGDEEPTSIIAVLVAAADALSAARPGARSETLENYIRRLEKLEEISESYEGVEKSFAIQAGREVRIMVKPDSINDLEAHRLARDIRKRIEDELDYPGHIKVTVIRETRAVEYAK", "experiment": "SPR", "data": [{"substance": "PNPase (from UniProt P50849)", "values": [{"measurement": "Kd", "value": 5, "unit": "nM"}]}]}
